According to US20210277137A1 (AbbVie / Abbott, published 2021):
Changes are numbered by the printed parent chain. In names and notes the source's numbering stands.

B1: Humanized muAb9 A2V (antibody, human IgG1, kappa)
heavy: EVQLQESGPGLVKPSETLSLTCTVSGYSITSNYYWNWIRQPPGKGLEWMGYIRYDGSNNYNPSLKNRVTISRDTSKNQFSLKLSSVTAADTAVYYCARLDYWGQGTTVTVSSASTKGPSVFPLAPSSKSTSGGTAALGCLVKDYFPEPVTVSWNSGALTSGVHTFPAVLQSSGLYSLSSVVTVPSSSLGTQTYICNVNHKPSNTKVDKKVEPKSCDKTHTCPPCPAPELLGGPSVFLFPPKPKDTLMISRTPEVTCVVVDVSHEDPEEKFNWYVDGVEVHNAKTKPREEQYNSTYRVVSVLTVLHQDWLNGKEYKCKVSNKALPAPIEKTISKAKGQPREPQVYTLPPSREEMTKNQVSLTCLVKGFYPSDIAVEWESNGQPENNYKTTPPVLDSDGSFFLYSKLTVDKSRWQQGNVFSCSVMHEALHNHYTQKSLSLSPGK
light: DVVMTQTPLSLSVTPGQPASISCRSSQSLENTNGNTFLNWYLQKPGQSPQLLIYRVSNRFSGVPDRFSGSGSGTDFTLKISRVEAEDVGVYYCLQVTHVPFTFGQGTKLEIKRTVAAPSVFIFPPSDEQLKSGTASVVCLLNNFYPREAKVQWKVDNALQSGNSQESVTEQDSKDSTYSLSSTLTLSKADYEKHKVYACEVTHQGLSSPVTKSFNRGEC
notes: human IgG1 V273E/kappa; also called huAb9 A2V
B2: AD163.10.7 (antibody, V domains shown)
VH: LVQPGGSLSLSCAASGFTFSDYYMSWVRQPPGKALEWLGFIRNKANGYTTEFSASVKGRFTISRDNSQSILYLQMNALRAEDSATYYCARYGGLRQGWYFDVWGTGTTVTVSS
VL: DIQMTQTTSSLSASLGDRVTISCRASQDIRNYLNWYQQKPDGTVKLLIYYTSRLHSGVPSRFSGSGSGTDYSLTISNLEQEDIATYFCQQGKTLPWTFGGGSKLEMK
notes: mouse hybridoma monoclonal; also called muAb4
B3: AD175.14.11 (antibody, V domains shown)
VH: EVQLQQSGPELVKPGASVKISCKASGYTFTDYYMNWVKQSHGKSLEWIGDINPNNGGTSYNQKFKGKATLTVDKSSSTAYMELRSLTSEDSAVYYCARRGGLGRGTYALDYWGQGTSVTVSS
VL: B2 VL with R30S, L46P, S56L, K92N, W96L, G100A, S102T, M106L
notes: mouse hybridoma monoclonal; also called muAb3
B4: AD165.1.2 (antibody, V domains shown)
VH: DVQLQESGPGLVEPSQSLFLTCSVTGYSITTNYNWNWIRQFPGNKLEWMGYIRHDGTNNYNPSLKNRISIIRDTPKNQFFLKLNSVTTEDTAIYFCTRLDYWGQGTSVTVSS
VL: DAVMTQTPLSLPVSLGDQASISCRSSQSLENSYGNTFLNWFLQRPGQSPQLLIYRVSNRFCGVPDRFSGSGSGTDFTLKISRVEAEDLGIYFCLQVTHVPYTFGGGTKLEIK
notes: mouse hybridoma monoclonal; also called muAb5
B5: AD163.9.3 (antibody, V domains shown)
VH: QVQLQQPGAELVKPGASVKMSCKASGYTFTSYWITWVKQRPGQGLEWIGEINPGSGSTNYNEKFKSKATLTVDTSSSTAYMQLSSLTSEDSAVYYCARNRGTGDYWGQGTTLTVSS
VL: DVVMTQTPLSLPVSLGDQASISCRSSQSLVHSYGNTYLHWYLQKPGQSPKFLIYKVSNRISGVPDRLSGSGSGTDFTLKISRVEPEDLGVYFCSQSTHVPYTFGGGTKLEIK
notes: mouse hybridoma monoclonal; also called muAb1
B6: AD166.4.4 (antibody, V domains shown)
VH: QVQLQQSGAELMKPGASAKLSCKATGYTFTGYWIQWVKQRPGHGLEWIGEILPGGDHTKYNEKFRGKATFTSDTSSNTVYMQLSSLTTEDSAIYYCARVGGDYWGQGTTLTVSS
VL: B5 VL with H31N, Y33N, G34E, F51L, S57F, I60Y, L67F, P85A, S94F, Y101W
notes: mouse hybridoma monoclonal; also called muAb2
B7: AD164.76.3 (antibody, V domains shown)
VH: DVQLQESGPGLVKPSQSLSLTCSVTGYSITSNYYWNWIRQFPGNKLEWMGYIRYDGSNNYNPSLKNRISITRDTSKNQFFLRLNSVTTEDTATYYCTRLDYWGQGTTLTVSS
VL: B4 VL with Y33N, R44K, V56I, C61S, I90V, Y101F, G105S
notes: mouse hybridoma monoclonal; also called muAb10
B8: AD164.14.6 (antibody, V domains shown)
VH: B7 VH with R82K, T97A
VL: B4 VL with S32T, Y33N, R44K, C61S, I90V, Y101F, G105S
notes: mouse hybridoma monoclonal; also called muAb9
B9: AD163.7.2 (antibody, V domains shown)
VH: QVQLQQSGPELVKSGASVKISCKASGYTFTDYYINWVKQRPGQGLEWIGWIFPGSGSVYCNEQFKGQATLTVDRSSSTAYMLLSSLTSEDSAVYFCASSLGKFAYWGQGTLVTVSA
VL: DIVMTQSQKFMSTTVGDRVSITCKASQSVVTAVAWYQQKPGQSPKLLIYSASNRYTGVPDRFTGSGSGTDFALTIRTMQSEDLADYFCQQYSSYPYTFGGGTKLEIK
notes: mouse hybridoma monoclonal; also called muAb8
B10: AD163.162.1 (antibody, V domains shown)
VH: QVQLQQPGAELVRPGSSVKLSCKASGYTFTSYWMHWVKQRPIQGLEWIGNIDPSNGETHYNQKFKDKATLTVDKSSSTAYMQLSSLTSEDSAVYYCARERIYYSGSTYDGYFDVWGTGTTVTVSS
VL: QIVLTQSPAIMSASPGEKVTMTCSASSSLSYMHWYQQKSGTSPKRWIYDTSKLASGVPARFSGSGSGTSYSLTISSMEAEDAATYYCQQWSSNPWTFGGGTKLEIK
notes: mouse hybridoma monoclonal; also called muAb6
B11: AD163.27.12 (antibody, V domains shown)
VH: B10 VH
VL: B10 VL with A79G, A82G
notes: mouse hybridoma monoclonal; same VH as muAb6; also called muAb7
B12: Humanized muAb6 #1 (antibody, V domains shown)
VH: EVQLVQSGAEVKKPGSSVKVSCKASGYTFTSYWMHWVRQAPGQGLEWIGNIDPSNGETHYNQKFKDRATLTVDKSTSTAYMELSSLRSEDTAVYYCARERIYYSGSTYDGYFDVWGQGTTVTVSS
VL: DIQLTQSPSFLSASVGDRVTITCSASSSLSYMHWYQQKPGKSPKRWIYDTSKLASGVPSRFSGSGSGTEYTLTISSLQPEDFATYYCQQWSSNPWTFGGGTKVEIK
B13: Humanized muAb6 #2 (antibody, V domains shown)
VH: B12 VH with A68V, L70I
VL: B12 VL
B14: Humanized muAb6 #3 (antibody, V domains shown)
VH: B12 VH with N61A, K65Q, D66G, A68V, L70I
VL: B12 VL
B15: Humanized muAb9 #1 (antibody, V domains shown)
VH: EVQLQESGPGLVKPSETLSLTCTVSGYSITSNYYWNWIRQPPGKGLEWMGYIRYDGSNNYNPSLKNRITISRDTSKNQFSLKLSSVTAADTAVYYCARLDYWGQGTTVTVSS
VL: DAVMTQTPLSLSVTPGQPASISCRSSQSLENTNGNTFLNWFLQKPGQSPQLLIYRVSNRFSGVPDRFSGSGSGTDFTLKISRVEAEDVGVYFCLQVTHVPFTFGQGTKLEIK
B16: Humanized muAb9 #4 (antibody, V domains shown)
VH: B15 VH
VL: B15 VL with F41Y, F92Y
B17: Humanized muAb9 #3 (antibody, V domains shown)
VH: B15 VH with T30S, N66S, I68V
VL: B15 VL
B18: Humanized muAb9 #2 (antibody, V domains shown)
VH: B15 VH with I68V
VL: B15 VL
B19: Humanized muAb9 #6 (antibody, V domains shown)
VH: B15 VH with T30S, N66S, I68V
VL: B15 VL with F41Y, F92Y
B20: CP-870,893 (antibody, human IgG2, kappa, V domains shown)
VH: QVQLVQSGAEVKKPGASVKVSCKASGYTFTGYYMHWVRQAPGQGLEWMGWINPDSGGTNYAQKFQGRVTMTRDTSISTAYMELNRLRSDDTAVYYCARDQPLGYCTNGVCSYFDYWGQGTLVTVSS
VL: DIQMTQSPSSVSASVGDRVTITCRASQGIYSWLAWYQQKPGKAPNLLIYTASTLQSGVPSRFSGSGSGTDFTLTISSLQPEDFATYYCQQANIFPLTFGGGTKVEIKR

target: T1, soluble cynomolgus (cyno) CD40 (Creative BioMart, cat #CD40-8824C) (cynomolgus, UniProt G7PG38 21-193); experiment: SPR (BIAcore T200); antibody captured by anti-Fc; soluble CD40 injected
T1 construct: extracellular domain; also called Cynomolgus CD40
Description: (§1) CD40 binding kinetics was analyzed by BIAcore assay with a BIAcore T200 instrument. Briefly, a goat anti-mouse Fc antibody (Pierce, cat #31170) or goat anti-human Fc (Pierce, cat #31125) was immobilized on a CM5 sensor chip, followed by capture of the anti-CD40 antibodies on the test surface.

Row | Kd [nM] | koff [s⁻¹] | kon [M⁻¹ s⁻¹] | Binder
1 | 140 | 0.27 | 1.9e+06 | B1

target: soluble form of the extracellular domain of human CD40 (Creative BioMart, cat #CD402221H) (human, UniProt P25942 21-193); experiment: as above
Sequence (P25942 21-193 limits assumed): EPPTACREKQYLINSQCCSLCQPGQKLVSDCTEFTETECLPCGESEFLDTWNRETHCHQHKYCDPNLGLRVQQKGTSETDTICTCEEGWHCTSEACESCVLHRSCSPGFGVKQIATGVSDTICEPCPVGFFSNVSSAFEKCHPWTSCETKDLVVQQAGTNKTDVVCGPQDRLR
Description: as §1

Row | Kd [nM] | koff [s⁻¹] | kon [M⁻¹ s⁻¹] | Binder
2 | 170 | 0.26 | 1.5e+06 | B1

target: T2, human CD40 on cells (human, UniProt P25942 21-277); experiment: cell-based or functional assay
T2 sequence (P25942 21-277 limits assumed): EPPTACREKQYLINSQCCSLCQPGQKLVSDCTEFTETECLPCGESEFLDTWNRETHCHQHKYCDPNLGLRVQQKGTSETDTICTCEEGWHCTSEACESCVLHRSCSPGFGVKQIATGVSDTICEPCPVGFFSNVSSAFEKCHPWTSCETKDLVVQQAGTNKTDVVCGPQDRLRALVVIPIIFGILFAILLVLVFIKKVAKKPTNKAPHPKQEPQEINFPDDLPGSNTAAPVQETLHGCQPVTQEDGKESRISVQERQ

Row | moDC activation (IL-12p70, pg/mL) [pg/mL] | Binder
3 | 1320 | B2
4 | 0 | B3
5 | 720 | B4
6 | 2220 | B5
7 | 0 | B6
8 | 770 | B7
9 | 878 | B8
10 | 905 | B9
11 | 2160 | B10
12 | 1510 | B11

target: T2, human CD40 on cells; experiment: cell-based or functional assay; remark: another data set of the same source

Row | Maximal activation (OD655) in HEK293 blue CD40 NFκB reporter cells [OD655] | NFκB activation EC50 (SEAP, OD655) in HEK293 blue CD40 NFκB reporter cells [mg/L] | Binder
13 | 0.26 | 1.09 | B12
14 | 0.2 | 1.21 | B13
15 | 0.32 | 4.31 | B14
16 | 0.26 | 0.19 | B15
17 | 0.61 | 5.55 | B16
18 | 0.27 | 0.18 | B17
19 | 0.27 | 0.29 | B18
20 | 0.54 | 5.95 | B19

target: T2, human CD40 on cells; experiment: cell-based or functional assay; remark: another data set of the same source

Row | NFκB activity EC50; HEK293 blue CD40 reporter cells co-cultured with CHO cells expressing CD16F [nM] | NFκB activity EC50; HEK293 blue CD40 reporter cells co-cultured with CHO cells expressing CD16V [nM] | NFκB activity EC50; HEK293 blue CD40 reporter cells co-cultured with CHO cells expressing CD32a [nM] | NFκB activity EC50; HEK293 blue CD40 reporter cells co-cultured with CHO cells expressing CD32b [nM] | NFκB activity EC50; HEK293 blue CD40 reporter cells co-cultured with CHO cells expressing CD64 [nM] | NFκB activity EC50; HEK293 blue CD40 reporter cells co-cultured with FcγR negative CHO cells [nM] | Binder
21 | 0.03 | 0.02 | 0.02 | 0.02 | 0.02 | 0.03 | B20

target: T3, CD40-human Fc (huFc) fusion protein (Creative BioMart) (human, UniProt P25942 21-193); experiment: ELISA: CD40-huFc mixed with antibody, binding to plate-bound HA-tagged CD40L
T3 construct: bought; also called CD40-huFc; not shown: human Fc
T3 sequence (P25942 21-193 limits assumed): as the sequence (P25942 21-193 limits assumed) above
Description: After development with TMB (3, 3′, 5, 5′-tetramethylbenzidine) substrate, the plates were read at OD₄₅₀.

Row | OD450 Ratio | OD450 with anti-CD40 antibody [OD450] | Binder
22 | 1.68 ratio to isotype control | 1.34 | B2
23 | 0.09 ratio to isotype control | 0.068 | B3
24 | 1.24 ratio to isotype control | 0.989 | B4
25 | 2.22 ratio to isotype control | 1.78 | B5
26 | 1.28 ratio to isotype control | 1.02 | B6
27 | 2.63 ratio to isotype control | 2.11 | B7
28 | 2.35 ratio to isotype control | 1.88 | B8
29 | 0.08 ratio to isotype control | 0.066 | B9
30 | 0.57 ratio to isotype control | 0.455 | B10
31 | 0.41 ratio to isotype control | 0.328 | B11
